Test results from patent publication US20040241163A1 (published 2004).

B3: secreted HCMV UL21.5 protein (UL21.5 activity in concentrated supernatant of wild-type HCMV-infected human fibroblasts) (other)
chain: APSQKSKRSVTVEQPSTSADGSNTTPSKNVTLSQGGSTTDGDEDYSGEYDVLITDGDGSEHQQPQKTDEHKENQAKENEKKIQ
modifications: highly glycosylated (sites not given)
notes: Not purified: tested as 300-fold concentrated serum-free culture medium of fibroblasts infected with wild-type AD169 virus; Secreted forms of 45 kDa and 25 kDa are cited; also called Wt supernatant; HCMV-infected cell supernatant

What was measured:
[1] = biological target: B3; assay: summary in the description of the Scatchard analysis of Example 4 (rounded value)
[2] = biological target: B3; assay: Scatchard analysis, 125I-RANTES (25-500 pM) with infected cell supernatant, PEG precipitation and filtration
[3] = biological target: B3; assay: EDC cross-linking of 125I-chemokine to infected cell supernatant, SDS-PAGE autoradiogram
interferon-γ = biological target: T1, interferon-γ (UniProt P01579 24-166); assay: competition of unlabeled cytokine with 125I-RANTES for cross-linking to UL21.5
T1 construct: also called IFN-γ
T1 sequence: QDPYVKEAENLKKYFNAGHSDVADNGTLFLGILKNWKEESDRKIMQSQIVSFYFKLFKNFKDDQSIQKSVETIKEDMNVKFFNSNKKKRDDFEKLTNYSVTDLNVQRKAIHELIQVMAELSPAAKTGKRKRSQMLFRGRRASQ

B1: RANTES (regulated upon activation, normal T cell expressed and secreted) (ligand)
chain: SPYSSDTTPCCFAYIARPLPRAHIKEYFYTSGKCSNPAVVFVTRKNRQVCANPEKKWVREYINSLEMS
modifications: also: 125I-labeled in tracer form, position not given here
notes: also called 125I-labeled RANTES; 125I-RANTES
Question: Which results are given for B1?
Answer: Kd [1]: 0.15 nM; Kd [2]: 0.147 nM

B2: MIP-1α (ligand)
chain: SLAADTPTACCFSYTSRQIPQNFIADYFETSSQCSKPGVIFLTKRSRQVCADPSEEWVQKYVSDLELSA
modifications: also: 125I-labeled in tracer form, position not given here
notes: also called MIP-1 alpha; 125I-labeled MIP-1α
Question: Does B2 bind [3]?
Answer: no binding (tested: 0.4 nM 125I-labeled chemokine)

Question: Does B3 bind (interferon-γ)?
Answer: no binding
